Experimental findings from ChEMBL document CHEMBL2074046, “Selectivity of the polyspecific cation transporter rOCT1 is changed by mutation of aspartate 475 to glutamate” (Mol Pharmacol, 1999) are described below.

Data set [1] concerns the target T1, Solute carrier family 22 member 1 (Rattus norvegicus, UniProt Q63089).
T1 sequence (Q63089 whole entry): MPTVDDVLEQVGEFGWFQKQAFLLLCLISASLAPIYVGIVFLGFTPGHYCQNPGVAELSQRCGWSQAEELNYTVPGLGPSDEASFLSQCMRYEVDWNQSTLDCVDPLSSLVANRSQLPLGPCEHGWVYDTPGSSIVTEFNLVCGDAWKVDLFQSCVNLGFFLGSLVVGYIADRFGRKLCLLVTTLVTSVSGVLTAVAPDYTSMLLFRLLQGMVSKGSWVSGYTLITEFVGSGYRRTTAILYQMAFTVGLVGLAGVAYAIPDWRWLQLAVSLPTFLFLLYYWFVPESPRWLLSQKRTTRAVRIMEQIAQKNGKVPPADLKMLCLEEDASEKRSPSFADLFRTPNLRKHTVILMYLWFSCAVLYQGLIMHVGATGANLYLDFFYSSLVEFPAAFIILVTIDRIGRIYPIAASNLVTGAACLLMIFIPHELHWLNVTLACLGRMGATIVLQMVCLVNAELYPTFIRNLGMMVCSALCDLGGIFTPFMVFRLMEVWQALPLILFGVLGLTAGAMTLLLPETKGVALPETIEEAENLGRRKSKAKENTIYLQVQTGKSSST

Data set [2] deals with T1, Solute carrier family 22 member 1. The data set can be described thus: TP_TRANSPORTER: inhibition of MPP+ uptake (MPP+: 0.1 uM) in OCT1-expressing HEK293 cells. The format is functional, cell-based.
Substrate in data set [3]: C[n+]1ccc(-c2ccccc2)cc1
The experiment in a line: TP_TRANSPORTER: uptake in OCT1-expressing HEK293 cells. The format is functional, cell-based.

Substrate in data set [4]: CNC(=O)c1cccnc1
The experiment in a line: (§1) TP_TRANSPORTER: uptake in Xenopus laevis oocytes. The format is functional, cell-based, Oocyte.

Substrate in data set [5]: C[n+]1ccc(-c2ccccc2)cc1
Described as §1. The format is functional, cell-based, Oocyte.

Substrate in data set [6]: CC[N+](CC)(CC)CC
The experiment in a line: cells, lysate or membranes named.

Substrate in data set [7]: C[N+](C)(C)CCO
The data set can be described thus: cells, lysate or membranes named.

As to `CCCC[N+](CCCC)(CCCC)CCCC` [TETRABUTHYLAMMONIUM], in data set [1], the IC50 (in general, the point on the concentration scale where inhibition reaches its midpoint) is 3 µM. This counts as single-digit micromolar.

In turn, `CCCCC[N+](CCCCC)(CCCCC)CCCCC` [TETRAPENTYLAMMONIUM] came in with an IC50 in data set [2] of 0.18 µM.

B1: Solute carrier family 22 member 1 (Rattus norvegicus) (protein)
chain: MPTVDDVLEQVGEFGWFQKQAFLLLCLISASLAPIYVGIVFLGFTPGHYCQNPGVAELSQRCGWSQAEELNYTVPGLGPSDEASFLSQCMRYEVDWNQSTLDCVDPLSSLVANRSQLPLGPCEHGWVYDTPGSSIVTEFNLVCGDAWKVDLFQSCVNLGFFLGSLVVGYIADRFGRKLCLLVTTLVTSVSGVLTAVAPDYTSMLLFRLLQGMVSKGSWVSGYTLITEFVGSGYRRTTAILYQMAFTVGLVGLAGVAYAIPDWRWLQLAVSLPTFLFLLYYWFVPESPRWLLSQKRTTRAVRIMEQIAQKNGKVPPADLKMLCLEEDASEKRSPSFADLFRTPNLRKHTVILMYLWFSCAVLYQGLIMHVGATGANLYLDFFYSSLVEFPAAFIILVTIDRIGRIYPIAASNLVTGAACLLMIFIPHELHWLNVTLACLGRMGATIVLQMVCLVNAELYPTFIRNLGMMVCSALCDLGGIFTPFMVFRLMEVWQALPLILFGVLGLTAGAMTLLLPETKGVALPETIEEAENLGRRKSKAKENTIYLQVQTGKSSST
Take B1: the Km – broadly, the substrate concentration at which the rate is half of its maximum – worked out at 9.4 µM in data set [3]; 126 µM in data set [4]; 2.7 µM in data set [5]; 129 µM in data set [6]; 370 µM in data set [7].
